From the DeepSol protein solubility set

Assay: soluble on expression in E. coli; label from the status in PepcDB or PDB records

Soluble on expression in E. coli, soluble:
MSVAGLKKQFHKATQKVSEKVGGAEGTKLDDDFKEMERKVDVTSRAVMEIMTKTIEYLQPNPASRAKLSMINTMSKIRGQEKGPGYPQAEALLAEAMLKFGRELGDDCNFGPALGEVGEAMRELSEVKDSLDIEVKQNFIDPLQNLHDKDLREIQHHLKKLEGRRLDFDYKKKRQGKIPDEELRQALEKFDESKEIAESSMFNLLEMDIEQVSQLSALVQAQLEYHKQAVQILQQVTVRLEERIRQASSQPRREYQPKPRMSLEFPTGDSTQPNGGLSHTGTPKPSGVQMDQPCCRALYDFEPENEGELGFKEGDIITLTNQIDENWYEGMLHGHSGFFPINYVEILVALPH, MSVPAGSVSCLANALLNLRSSTDYNADHGVKNSILNFSNSKDASRFDGSESWSSSVLDKNQFIVAGSDSVKHFVAISTQGRGDHDQWVTSYKLRYTLDNVNWVEYNNGEIINANKDRNSIVTINFNPPIKARSIAIHPQTYNNHISLRWELYALPVKSYSNPSVQVGEVSIGDRSLNSGTGSRTIVRHVKFPVEFLSVPIVSIGCKKVDAHTDNGQMRWEGKSENITTKGFDLTFITWGNNAVYDLTFDYVAVEFNN, MSVVGEERKRTILEKVEFKGKVKVSELAREFAVSTETIRRYLEELDREKKLKKVYGGAVQLPGAGVEAPMLEREMLHIEEKKRIGYKAATFVEDGDVIAIDDGSTPLQMVPYLVHRKNLTIVTSSFPVATQLISSINKKMFHGEVLFIGGKVSPKHSRVSGSISQQVIQQFHFHKAFVSIDGLLPSFGVSSFELEKAKLSEAMMKLAEKTYILCDHTKVGVKGNYRIAAISRIQHVICDKKMPYSFEEELMKHNIQWTVCLEHHHHHH, MSVVSLVGQMYKREKPIPEWKTLMLRELEELFSKHRVVLFADLTGTPTFVVQRVRKKLWKKYPMMVAKKRIILRAMKAAGLELDDNLLDDLVRGQMLLVFADGNPFKIVKEVEKEKVAMPVKPGDKAETEIRIPEGMTNLTPGPILSVFGKLRIQYQVRGGKIYIAKETVVAKPGDVISEDLAGLLMALGIRPIEKGVRVKFAIDGGVLITEDLLRPDIEAFRGDVIDAAKEALGLATEIVYMPVPEAVESAIVKAALAASALAAETGFIAPGTVEDVVRKAIAEEAAVVALLGDKARELGIEEAAPAAAPAAEEKAEEEKKEEEEEKKEDQELSGLDSIFGGF, MSWSLLSNIIKKFTLLHHFQPIGYIYKYIHICTLNHSLGSCVLQANYSIQNNLRSRTLFIQSEITYSHSLESTHFFGILIFFNIKFRVFNRINDPWTVLDNVPEVMFHDRFFINDFTFWVDVLQEAFRMRRWIFRFEQLVVNPSFSNSQWRIIF, MSYYHHHHHHDYDIPTTENLTFQGAMEPTSSLNRGDRKKGSSLVTGSEVQSQSNGASCFITTDSEKSLVSRQASQVEQIELRTYVFLDSLQPQLAAYMGTVSRGFLPIPGDSCLWMEVSPGMAVHRVTDIALKASNVRLGQMIVERAFGSLALYHKDQSTVLHSGDVVLDAIGSEVRKRTKPSTSWTEVICAITPDHAVLINRQNRSGSMIQSGMSMFILETEPAGYVLKAANEAEKSANITIIDVKAVGAFGRLTLAGKEGDVEEAAAAAIRAIDQISNY, MSYYHHHHHHLESTSLYKKAGLENLYFQGVRQYKIHTNLDGTDDKVWDVTNGKVRFYQPSNLGLQSTNNIWQSNGIGVMGTRSITQPQIEFKLETFGESLEENYQLMKDFVNDILSKKFVTLEYQTEIFQVYADLALADVTKTEGYGKNGTFSEKITFDIITKWYTYENLTFDKIQNGKVIAGMSKIYGGTAPGNYKYIKGTSYTYYGESDIDRLSRWDIKEEIFSFMGILYPKLPKTPAGVRFLDDIGNEYTAIVFKTEQVQDYILINTDVNDETYQGWKGTTALNLFPVMDFERYRTRIIEKGQMELINLSKAEFKIKRKADFV, MSYYHHHHHHLESTSLYKKAGLVQRITIAPQGPEFSRFVMGYWRLMDWNMSARQLVSFIEEHLDLGVTTVDHADIYGGYQCEAAFGEALKLAPHLRERMEIVSKCGIATTAREENVIGHYITDRDHIIKSAEQSLINLATDHLDLLLIHRPDPLMDADEVADAFKHLHQSGKVRHFGVSNFTPAQFALLQSRLPFTLATNQVEISPVHQPLLLDGTLDQLQQLRVRPMAWSCLGGGRLFNDDYFQPLRDELAVVAEELNAGSIEQVVNAWVLRLPSQPLPIIGSGKIERVRAAVEAETLKMTRQQWFRIRKAALGYDVP

Soluble on expression in E. coli, not soluble:
MSVKISGKDYAGMYGPTKGDRVRLADTDLIIEIEEDYTVYGDECKFGGGKSIRDGMGQSPSAARDDKVLDLVITNAIIFDTWGIVKGDIGIKDGKIAGIGKAGNPKVMSGVSEDLIIGASTEVITGEGLIVTPGGIDTHIHFICPQQIETALFSGITTMIGGGTGPADGTNATTCTPGAFNIRKMLEAAEDFPVNLGFLGKGNASFETPLIEQIEAGAIGLKLHEDWGTTPKAIDTCLKVADLFDVQVAIHTDTLNEAGFVENTIAAIAGRTIHTYHTEGAGGGHAPDIIKIASRMNVLPSSTNPTMPFTVNTLDEHLDMLMVCHHLDSKVKEDVAFADSRIRPETIAAEDILHDMGVFSMMSSDSQAMGRVGEVIIRTWQTAHKMKLQRGALPGEKSGCDNIRAKRYLAKYTINPAITHGISQYVGSLEKGKIADLVLWKPAMFGVKPEMIIKGGFIIAGRMGDANASIPTPQPVIYKNMFGAFGKAKYGTCVTFVSKASLENGVVEKMGLQRKVLPVQGCRNISKKYMVHNNATPEIEVDPETYEVKVDGEIITCEPLKVLPMAQRYFLF, MSVQSITESNQPPVICLMGPTASGKTALAMALKDALPCDIVSVDSALIYRDMDIGTAKPTKSELVQYPHRLIDLRDASESYSAADFCRDALVEIAEIRSNGRIPLLVGGTMMYFKSLIEGISPLPTANPEIRQAIEAEALSKGWQAMHDQLAEIDPVSAERIHPNDPQRITRALEVYRLTSNTLTQLTQIKGAKLAGDVLQLAITPRERSTLHERIALRYQQMIDLGFEQEVIKLKSRDDLHQDLPSIRCVGYRQMWQHLEGEFDHDEMIFRGVCATRQLAKRQLTWLRNWPDLHWLTTDDKTNLAQVLSLLEAKH, MSWKFEEKSPIYAQIAQHVMMQIISQEIKSGDQLPTVREYAEIAGVNPNTMQRAFTELEREGMVYSQRTAGRFVTDDQKLIARKRRELAISELESFITNMTKMGFSHTEIIPVLTSFLKEDSQ, MSYDANLTKYMDFLVKKTKNAAEPTTFKEIFDEYSRLDPDRSTYSMCYDKFHHRLAPIMNELNTYSIRERVRVMLTMGGKVSKDFLTTIEKLGTVQLDEKRRILKYASKDGKFKIEGARSEFMDFLIQQTRDAVRPMTSTSIAKEFCRIKDRQVSVDTFNKKFRRNLAPNMSRWSSYLLGDRIRMMFVLKGTVRTDFLAEIEKSGTVQLDDQRRIVRYASNDGMIELEEKTSGVKRRRSTKSSNTPTKRREITENELSDTDDVEVMEIVDGYVEQESASFDFEELVNREASYNLDQGHLYREILEAPLLENRDSKFNPFNAKSGRQAEVQRSGTFLNESEGTSTNAQESFVFRGFLKQEPVFEQFHIQNMSNNLVNLPIPPEIEETPVQEGHHVEPSGITGSDGIRLHKFLNSLELMLTSLESDTLNDLMQEIEEIRRRTDEILPSELVITTLQTFFLGITRKFRPETSAPSKSAKECLRIFKYALLWLKNPLLYDLQKRVQDEIENHEADGKVLLIADVQQGIRNILFTVV, MSYNEKSSKSIHEKRAIAKYAASLIEDGDCIFVDAGTTTYELIDYLEGKDILVVSNGLSHIDTLIQKNIKCYVIGGNIKISTKAITGCDALMCLSKFRFDKCFIGANGVHHTYGLTTPDTEEAILKECAINNSRKAYVLADDSKFGEISTIKFSDINKCVIITNEKPKDLEHHHHHH, MSYNLLGFLQRSSNFQSQKLLWQLNGRLEYCLKDRMNFDIPEEIKQLQQFQKEDAALTIYEMLQNIFAIFRQDSSSTGWNETIVENLLANVYHQINHLKTVLEEKLEKEDFTRGKLMSSLHLKRYYGRILHYLKAKEYSHCAWTIVRVEILRNFYFINRLTGYLRN, MSYTAHEAQAALAPQFDAYSKAIEGSDWDTVATFYHPNGVIVQKGKEAFYGKDAIKAELLKFSEATGRSTSSFSNQKYEGAGDYLIITADFSSETEKAGTVKGKFVQIWKKEGDRHLIYHDEFEVNP
